# T1: human C1s (human, UniProt P09871 16-688)
# T1 construct: also called hC1s; serum-derived human C1s (CompTech)
# T1 sequence: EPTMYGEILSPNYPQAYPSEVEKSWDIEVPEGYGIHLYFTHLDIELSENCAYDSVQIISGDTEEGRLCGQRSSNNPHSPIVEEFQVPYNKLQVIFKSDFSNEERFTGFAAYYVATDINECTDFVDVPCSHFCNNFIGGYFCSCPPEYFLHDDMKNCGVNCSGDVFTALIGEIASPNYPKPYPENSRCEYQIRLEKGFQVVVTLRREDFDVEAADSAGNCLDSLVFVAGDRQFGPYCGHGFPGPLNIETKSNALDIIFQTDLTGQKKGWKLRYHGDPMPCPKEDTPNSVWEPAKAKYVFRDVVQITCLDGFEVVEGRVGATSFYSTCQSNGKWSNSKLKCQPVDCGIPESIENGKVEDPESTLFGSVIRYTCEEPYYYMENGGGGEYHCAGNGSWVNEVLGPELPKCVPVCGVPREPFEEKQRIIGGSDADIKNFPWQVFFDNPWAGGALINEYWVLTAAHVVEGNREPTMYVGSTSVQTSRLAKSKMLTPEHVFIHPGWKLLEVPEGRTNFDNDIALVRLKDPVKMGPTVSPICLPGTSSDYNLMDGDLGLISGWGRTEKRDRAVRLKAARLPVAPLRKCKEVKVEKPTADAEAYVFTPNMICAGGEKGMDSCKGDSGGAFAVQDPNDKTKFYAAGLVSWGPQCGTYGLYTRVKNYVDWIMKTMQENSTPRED
# T2: Serum-derived human C1s (human, UniProt P09871 16-688)
# T2 construct: The analyte was C1s purified from serum; also called hC1s
# T2 sequence: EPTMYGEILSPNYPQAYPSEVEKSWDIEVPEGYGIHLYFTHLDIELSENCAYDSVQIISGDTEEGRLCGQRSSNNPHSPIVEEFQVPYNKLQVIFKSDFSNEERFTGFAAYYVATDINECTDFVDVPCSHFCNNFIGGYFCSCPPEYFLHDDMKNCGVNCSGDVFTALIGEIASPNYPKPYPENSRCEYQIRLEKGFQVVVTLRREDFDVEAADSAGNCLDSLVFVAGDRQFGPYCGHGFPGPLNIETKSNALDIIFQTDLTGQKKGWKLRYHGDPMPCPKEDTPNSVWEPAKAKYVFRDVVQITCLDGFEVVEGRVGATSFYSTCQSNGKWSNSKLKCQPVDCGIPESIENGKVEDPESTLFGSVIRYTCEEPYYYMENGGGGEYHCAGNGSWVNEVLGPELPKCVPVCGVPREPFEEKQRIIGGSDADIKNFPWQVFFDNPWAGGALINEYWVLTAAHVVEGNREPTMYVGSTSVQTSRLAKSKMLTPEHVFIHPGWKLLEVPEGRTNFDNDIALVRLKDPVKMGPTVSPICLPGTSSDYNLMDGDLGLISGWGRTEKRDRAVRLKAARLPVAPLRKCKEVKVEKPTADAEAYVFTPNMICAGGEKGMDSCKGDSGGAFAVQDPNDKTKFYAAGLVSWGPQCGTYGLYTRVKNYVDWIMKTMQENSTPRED
# Key:
# human C1s [1] = biological target: T1, human C1s; assay: SPR, Ab captured; pH 7.4, 1.2 mM Ca
# How it was run: (§1)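 Protein A/G amine-coupled to CM4 chip; each variant captured to ~200 RU; 50 nM C1s injected, dissociation followed; surface regenerated with 10 mM glycine-HCl pH 1.5; all at 37 °C in 20 mM ACES buffers at pH 7.4 or 5.8 with 1.2 mM or 3 µM CaCl2.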
# human C1s [2] = biological target: T1, human C1s; assay: SPR; KD pH 5.8 3 uM Ca / KD pH 7.4 1.2 mM Ca
# How it was run: as §1
# human C1s [3] = biological target: T1, human C1s; assay: SPR, Ab captured; pH 5.8, 3 uM Ca
# How it was run: as §1
# human C1s [4] = biological target: T1, human C1s; assay: SPR, Ab captured; pH 5.8, 1.2 mM Ca
# How it was run: as §1
# human C1s [5] = biological target: T1, human C1s; assay: SPR; KD pH 5.8 1.2 mM Ca / KD pH 7.4 1.2 mM Ca
# How it was run: as §1
# Serum-derived human C1s [6] = biological target: T2, Serum-derived human C1s; assay: SPR Biacore T200, 37 C, antibody captured on protein A/G, pH 5.8, 1.2 mM CaCl2
# Procedure: (§2) The binding affinity of all histidine-substituted variants at pH 7.4 and pH 5.8 were determined at 37 degrees C. using Biacore T200 instrument (GE Healthcare). Recombinant Protein A/G (Pierce) was immobilized onto all flow cells of a CM4 sensor chip using amine coupling kit (GE Healthcare). Antibodies and analytes were prepared in 7(+) buffer (20 mM ACES, 150 mM NaCl, 1.2 mM CaCl2, 0.05% Tween 20, 0.005% NaN3, pH 7.4) or 5(+) buffer (20 mM ACES, 150 mM NaCl, 1.2 mM CaCl2), 0.05% Tween 20, 0.005% NaN3, pH 5.8). Each antibody was captured onto the sensor surface by protein A/G. Antibody capture levels were aimed at 200 resonance unit (RU). […] Sensor surface was regenerated each cycle with 10 mM Glycine-HCl pH 1.5. […] An additional dissociation phase at pH 5.8 was integrated immediately after the dissociation phase at pH 7.4. This dissociation rate in 5(+) buffer was determined by processing and fitting data using Scrubber 2.0 (BioLogic Software) curve fitting software.
# Serum-derived human C1s [7] = biological target: T2, Serum-derived human C1s; assay: SPR Biacore T200, 37 C, ratio of KD pH 5.8 / pH 7.4, 1.2 mM CaCl2
# Procedure: as §2, with “software. […]” for “software.”
# Serum-derived human C1s [8] = biological target: T2, Serum-derived human C1s; assay: SPR Biacore T200, 37 C, antibody captured on protein A/G, pH 7.4, 1.2 mM CaCl2
# Procedure: as §2
# Serum-derived human C1s [9] = biological target: T2, Serum-derived human C1s; assay: SPR Biacore T200, 37 C, ratio of dissociation rates pH 5.8 / pH 7.4, 1.2 mM CaCl2
# Procedure: as §2
binder,measurement,setting,value
"C1_IPN92H0038-SG4GK/IPN93L0029-SK1 (antibody, human IgG4 S228P, kappa, name in Kabat numbering, V domains shown, also called IPN92H0038/IPN93L0029) VH: EVMLVESGGGLVKPGGSLRLSCAASGFTFSNYAMSWVRQAPGKGLEWVATISSGGSHTYYLDSVKHRFTISRDNSKDTLYLQMNSLRAEDTALYYCARLFTGHAMDYWGQGTLVTVSS VL: QIVLTQSPATLSLSPGERATLSCTASSSVSSSYLHWYQQKPGKAPKLWIYSTSNLASGVPSRFSGSGSGTDYTLTISSLQPEDFATYYCHQYHRLHPITFGQGTKLEIKR",Kd,human C1s [1],7.15 nM
same,koff,human C1s [1],0.003 s⁻¹
same,kon,human C1s [1],419000 M⁻¹ s⁻¹
same,KD 5(-)/7(+),human C1s [2],0.9
same,Kd,human C1s [3],6.62 nM
same,koff,human C1s [3],0.00522 s⁻¹
same,kon,human C1s [3],789000 M⁻¹ s⁻¹
same,Kd,human C1s [4],24.2 nM
same,koff,human C1s [4],0.0131 s⁻¹
same,kon,human C1s [4],539000 M⁻¹ s⁻¹
same,KD 5(+)/7(+),human C1s [5],3.4
"C1_IPN92H0038-SG4GK/IPN93L0030-SK1 (antibody, human IgG4 S228P, kappa, name in Kabat numbering, V domains shown, also called IPN92H0038/IPN93L0030) VH: EVMLVESGGGLVKPGGSLRLSCAASGFTFSNYAMSWVRQAPGKGLEWVATISSGGSHTYYLDSVKHRFTISRDNSKDTLYLQMNSLRAEDTALYYCARLFTGHAMDYWGQGTLVTVSS VL: QIVLTQSPATLSLSPGERATLSCTASSSVSSSYLHWYQQKPGKAPKLWIYSTSNLASGVPSRFSGSGSGTDYTLTISSLQPEDFATYYCHQYYRHHPITFGQGTKLEIKR",Kd,human C1s [1],19.9 nM
same,koff,human C1s [1],0.0111 s⁻¹
same,kon,human C1s [1],558000 M⁻¹ s⁻¹
same,KD 5(-)/7(+),human C1s [2],30.1
same,Kd,human C1s [3],599 nM
same,koff,human C1s [3],0.00538 s⁻¹
same,kon,human C1s [3],8980 M⁻¹ s⁻¹
same,Kd,human C1s [4],70.3 nM
same,koff,human C1s [4],0.017 s⁻¹
same,kon,human C1s [4],241000 M⁻¹ s⁻¹
same,KD 5(+)/7(+),human C1s [5],3.5
"C1_IPN92H0038-SG4GK/IPN93L0031-SK1 (antibody, human IgG4 S228P, kappa, name in Kabat numbering, V domains shown, also called IPN92H0038/IPN93L0031) VH: EVMLVESGGGLVKPGGSLRLSCAASGFTFSNYAMSWVRQAPGKGLEWVATISSGGSHTYYLDSVKHRFTISRDNSKDTLYLQMNSLRAEDTALYYCARLFTGHAMDYWGQGTLVTVSS VL: QIVLTQSPATLSLSPGERATLSCTASSSVSSSYLHWYQQKPGKAPKLWIYSTSNLASGVPSRFSGSGSGTDYTLTISSLQPEDFATYYCHQYHRHHPITFGQGTKLEIKR",Kd,human C1s [1],5.22 nM
same,koff,human C1s [1],0.0396 s⁻¹
same,kon,human C1s [1],7.59e+06 M⁻¹ s⁻¹
same,KD 5(-)/7(+),human C1s [2],0.7
same,Kd,human C1s [3],3.9 nM
same,koff,human C1s [3],0.00476 s⁻¹
same,kon,human C1s [3],1.22e+06 M⁻¹ s⁻¹
same,Kd,human C1s [4],1.24 nM
same,koff,human C1s [4],0.00146 s⁻¹
same,kon,human C1s [4],1.18e+06 M⁻¹ s⁻¹
same,KD 5(+)/7(+),human C1s [5],0.2
"C1_IPN92H0048-SG4GK/IPN93L0024-SK1 (antibody, human IgG4 S228P, kappa, name in Kabat numbering, V domains shown, also called IPN92H0048/IPN93L0024) VH: EVMLVESGGGLVKPGGSLRLSCAASGHTFSNYAMSWVRQAPGKGLEWVATISSGGSHTYYLDSVKGRFTISRDNSKDTLYLQMNSLRAEDTALYYCARLFTGHAMDYWGQGTLVTVSS VL: QIVLTQSPATLSLSPGERATLSCTASSSVSSSYLHWYQQKPGKAPKLWIYSTSNLASGVPSRFSGSGSGTDYTLTISSLQPEDFATYYCHQYYRLHPITFGQGTKLEIKR",Kd,human C1s [1],3.14 nM
same,koff,human C1s [1],0.00082 s⁻¹
same,kon,human C1s [1],261000 M⁻¹ s⁻¹
same,KD 5(-)/7(+),human C1s [2],1.1
same,Kd,human C1s [3],3.36 nM
same,Kd,human C1s [4],12.1 nM
same,koff,human C1s [4],0.00637 s⁻¹
same,kon,human C1s [4],528000 M⁻¹ s⁻¹
same,KD 5(+)/7(+),human C1s [5],3.9
"IPN009VH2/IPN009VK3-SG136 (antibody, human IgG1, kappa, also called parent antibody) heavy: EVMLVESGGGLVKPGGSLRLSCAASGFTFSNYAMSWVRQAPGKGLEWVATISSGGSHTYYLDSVKGRFTISRDNSKDTLYLQMNSLRAEDTALYYCARLFTGYAMDYWGQGTLVTVSSASTKGPSVFPLAPSSKSTSGGTAALGCLVKDYFPEPVTVSWNSGALTSGVHTFPAVLQSSGLYSLSSVVTVPSSSLGTQTYICNVNHKPSNTKVDKKVEPKSCDKTHTCPPCPAPELRRGPSVFLFPPKPKDTLMISRTPEVTCVVVDVSHEDPEVKFNWYVDGVEVHNAKTKPREEQYNSTYRVVSVLTVLHQDWLNGKEYKCKVSNKGLPSSIEKTISKAKGQPREPQVYTLPPSREEMTKNQVSLTCLVKGFYPSDIAVEWESNGQPENNYKTTPPVLDSDGSFFLYSKLTVDKSRWQQGNVFSCSVMHEALHNHYTQKSLSLSP light: QIVLTQSPATLSLSPGERATLSCTASSSVSSSYLHWYQQKPGKAPKLWIYSTSNLASGVPSRFSGSGSGTDYTLTISSLQPEDFATYYCHQYYRLPPITFGQGTKLEIKRTVAAPSVFIFPPSDEQLKSGTASVVCLLNNFYPREAKVQWKVDNALQSGNSQESVTEQDSKDCTYSLSSTLTLSKADYEKHKVYACEVTHQGLSSPVTKSFNRGEC",koff,Serum-derived human C1s [6],0.000162 s⁻¹
same,kon,Serum-derived human C1s [6],360000 M⁻¹ s⁻¹
same,KD (5.8+)/KD (7.4+),Serum-derived human C1s [7],0.4
same,kon,Serum-derived human C1s [8],344000 M⁻¹ s⁻¹
same,koff (5.8+ of 775+)/koff (7.4+),Serum-derived human C1s [9],0.2
"IPN009VH2/IPN93L0021-SG136 (antibody, human IgG1, kappa, name in Kabat numbering, The substitution is numbered by Kabat) heavy: EVMLVESGGGLVKPGGSLRLSCAASGFTFSNYAMSWVRQAPGKGLEWVATISSGGSHTYYLDSVKGRFTISRDNSKDTLYLQMNSLRAEDTALYYCARLFTGYAMDYWGQGTLVTVSSASTKGPSVFPLAPSSKSTSGGTAALGCLVKDYFPEPVTVSWNSGALTSGVHTFPAVLQSSGLYSLSSVVTVPSSSLGTQTYICNVNHKPSNTKVDKKVEPKSCDKTHTCPPCPAPELRRGPSVFLFPPKPKDTLMISRTPEVTCVVVDVSHEDPEVKFNWYVDGVEVHNAKTKPREEQYNSTYRVVSVLTVLHQDWLNGKEYKCKVSNKGLPSSIEKTISKAKGQPREPQVYTLPPSREEMTKNQVSLTCLVKGFYPSDIAVEWESNGQPENNYKTTPPVLDSDGSFFLYSKLTVDKSRWQQGNVFSCSVMHEALHNHYTQKSLSLSP light: QIVLTQSPATLSLSPGERATLSCTASSSVSSSYLHWYQQKPGKAPKLWIYSTSNLASGVPSRFSGSGSGTDYTLTISSLQPEDFATYYCHQYHRLPPITFGQGTKLEIKRTVAAPSVFIFPPSDEQLKSGTASVVCLLNNFYPREAKVQWKVDNALQSGNSQESVTEQDSKDCTYSLSSTLTLSKADYEKHKVYACEVTHQGLSSPVTKSFNRGEC",koff,Serum-derived human C1s [6],0.00126 s⁻¹
same,kon,Serum-derived human C1s [6],290000 M⁻¹ s⁻¹
same,KD (5.8+)/KD (7.4+),Serum-derived human C1s [7],1.5
same,kon,Serum-derived human C1s [8],199000 M⁻¹ s⁻¹
same,koff (5.8+ of 775+)/koff (7.4+),Serum-derived human C1s [9],1.9
